How the values were obtained:
[1] = test system: PEG12-Tregitope peptide (Peg12-Val-Cit-Tregitope-Nle)
[2] = test system: PEG2-Tregitope peptide (KKKK-Peg2-Val-Cit-Tregitope-Nle)

## Recombinant human Cathepsin B (catalog 953-CY of R&D Systems)
[1]
  cleavage of the Val-Cit site, evaluated by mass spec: For the PEG12 product, successful cleavage was demonstrated
[2]
  cleavage of the Val-Cit site, evaluated by mass spec: the PEG2 peptide did not have successful cleavage

From patent US20240316101
